Measurements as given in patent publication US20050203007A1 (REGENTS OF THE UNIVERSITY OF MICHIGAN, published 2005).

What was measured:
secreted, soluble furin [1] = biological target: T1, secreted, soluble furin (human, UniProt P09958 108-715, limits assumed); experiment: cell-based or functional assay
secreted, soluble Kex2 [2] = biological target: T2, secreted, soluble Kex2 (Saccharomyces cerevisiae, UniProt P13134 114-613, limits assumed); experiment: cell-based or functional assay
T2 sequence (looked up): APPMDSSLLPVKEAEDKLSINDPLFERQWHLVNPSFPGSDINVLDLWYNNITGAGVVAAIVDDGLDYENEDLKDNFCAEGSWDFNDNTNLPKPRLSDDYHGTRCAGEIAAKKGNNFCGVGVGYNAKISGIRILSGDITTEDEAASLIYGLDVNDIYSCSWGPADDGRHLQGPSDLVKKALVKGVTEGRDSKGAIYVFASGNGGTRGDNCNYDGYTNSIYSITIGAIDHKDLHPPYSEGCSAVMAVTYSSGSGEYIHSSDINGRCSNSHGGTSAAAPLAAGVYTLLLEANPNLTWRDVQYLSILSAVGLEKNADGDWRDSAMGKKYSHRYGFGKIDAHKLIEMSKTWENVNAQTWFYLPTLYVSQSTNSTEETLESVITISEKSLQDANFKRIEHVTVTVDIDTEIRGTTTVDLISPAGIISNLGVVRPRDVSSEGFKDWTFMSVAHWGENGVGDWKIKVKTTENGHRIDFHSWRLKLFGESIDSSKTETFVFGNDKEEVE

human PC7 = biological target: T3, human PC7 (human, UniProt Q16549 142-667, limits assumed); experiment: cell-based or functional assay
T3 sequence (looked up): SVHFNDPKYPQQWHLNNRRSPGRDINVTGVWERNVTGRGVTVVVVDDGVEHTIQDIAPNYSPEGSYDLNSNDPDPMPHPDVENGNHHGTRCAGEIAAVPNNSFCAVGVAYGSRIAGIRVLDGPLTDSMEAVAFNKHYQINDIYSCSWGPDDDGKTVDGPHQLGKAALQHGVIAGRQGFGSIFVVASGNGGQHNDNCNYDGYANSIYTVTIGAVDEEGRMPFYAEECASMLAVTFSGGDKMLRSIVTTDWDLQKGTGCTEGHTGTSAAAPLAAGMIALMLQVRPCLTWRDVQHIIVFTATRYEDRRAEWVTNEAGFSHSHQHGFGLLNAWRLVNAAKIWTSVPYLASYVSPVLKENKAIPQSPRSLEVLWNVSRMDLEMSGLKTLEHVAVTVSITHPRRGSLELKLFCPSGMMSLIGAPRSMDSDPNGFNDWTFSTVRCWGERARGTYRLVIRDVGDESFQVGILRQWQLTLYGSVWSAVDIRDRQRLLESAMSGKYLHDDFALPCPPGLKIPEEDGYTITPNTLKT

subtilisin Carlsberg = biological target: T4, subtilisin Carlsberg (UniProt P00780 106-379); experiment: enzyme inhibition
T4 sequence (looked up): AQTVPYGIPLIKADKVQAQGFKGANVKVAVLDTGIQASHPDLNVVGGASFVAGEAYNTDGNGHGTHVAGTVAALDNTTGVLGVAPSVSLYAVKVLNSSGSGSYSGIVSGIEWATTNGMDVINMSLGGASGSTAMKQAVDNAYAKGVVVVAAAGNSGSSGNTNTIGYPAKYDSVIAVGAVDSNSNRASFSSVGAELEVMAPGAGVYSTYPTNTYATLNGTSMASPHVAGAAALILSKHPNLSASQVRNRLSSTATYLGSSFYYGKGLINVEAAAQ

secreted, soluble furin [3] = biological target: T1, secreted, soluble furin; experiment: affinity resin, eglin immobilized on Reacti-Gel 6X
Experimental: Resins were synthesized by immobilizing purified M4R1-eglin and R4R1-eglin onto Reacti-Gel 6X (Pierce) using the manufacturer's protocol.
The resins were then used to test binding and elution of furin from these resins. […] Enzyme was eluted with 20 mM NaMES (pH 6.0) with approximately 90% yield. Furin binding capacity to the R4R1-eglin Resin was 10-fold higher relative to the M4R1-eglin Resin, but furin was not eluted by dropping pH. Instead, furin bound to the R4R1-eglin column was eluted with buffer containing 2 mM EDTA. 5 mM CaCl₂ was added to restore activity and 85% of the furin activity was recovered. (Unit definition: Release of 1 pmol of AMC/min in a reaction containing […] Boc-Arg-Val-Arg-Arg-MCA, 1 mM CaCl₂ and 20 mM NaMES (pH 7.0) at 37° C.

secreted, soluble furin [4] = biological target: T1, secreted, soluble furin; experiment: calculated from kon (progress curves) and Ka
Experimental: (§1) In some aspects of the present invention, biological application of the eglin c variants of the present invention as inhibitors of processing in vivo depends upon the rate of binding to target enzymes, where it is critical. Therefore, the rate of action of eglin variants with Kex2 and furin was examined by incubating 5×10⁻¹⁰ M enzyme with inhibitor at molar ratios of inhibitor to enzyme ranging from 10 to 80. […] The relationship between kobs and inhibitor concentration was linear. The values of kₒₙ were determined from the slope of such curves, and dissociation rate constants (koff) were calculated (koff=kₒₙ/Kₐ). For R4R1-eglin, koff was calculated to be 2×10⁻⁴s⁻¹ for Kex2, and 3×10⁻⁴s⁻¹ for furin. […] Similarly, the t_{1/2} of the complex of M4R1-eglin with Kex2 was estimated to be 3 h. For complex of R4K1-eglin with furin, koff was calculated to be 2×10⁻⁴s⁻¹ implying that the koff and t_{1/2} for this complex are similar to those for the complex of R4R1-eglin with furin.

secreted, soluble Kex2 [5] = biological target: T2, secreted, soluble Kex2; experiment: calculated from kon (progress curves) and Ka
Experimental: as §1

trypsin = experiment: enzyme inhibition; temporary inhibitor of trypsin
trypsin, sequence (P00760 24-246): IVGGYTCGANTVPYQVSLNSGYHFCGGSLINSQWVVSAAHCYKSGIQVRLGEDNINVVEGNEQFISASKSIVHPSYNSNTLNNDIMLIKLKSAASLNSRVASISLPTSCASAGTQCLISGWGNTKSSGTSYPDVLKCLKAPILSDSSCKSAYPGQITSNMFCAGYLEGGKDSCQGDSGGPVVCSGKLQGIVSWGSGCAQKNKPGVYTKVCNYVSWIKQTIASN

T1 sequence (P09958 108-715 limits assumed): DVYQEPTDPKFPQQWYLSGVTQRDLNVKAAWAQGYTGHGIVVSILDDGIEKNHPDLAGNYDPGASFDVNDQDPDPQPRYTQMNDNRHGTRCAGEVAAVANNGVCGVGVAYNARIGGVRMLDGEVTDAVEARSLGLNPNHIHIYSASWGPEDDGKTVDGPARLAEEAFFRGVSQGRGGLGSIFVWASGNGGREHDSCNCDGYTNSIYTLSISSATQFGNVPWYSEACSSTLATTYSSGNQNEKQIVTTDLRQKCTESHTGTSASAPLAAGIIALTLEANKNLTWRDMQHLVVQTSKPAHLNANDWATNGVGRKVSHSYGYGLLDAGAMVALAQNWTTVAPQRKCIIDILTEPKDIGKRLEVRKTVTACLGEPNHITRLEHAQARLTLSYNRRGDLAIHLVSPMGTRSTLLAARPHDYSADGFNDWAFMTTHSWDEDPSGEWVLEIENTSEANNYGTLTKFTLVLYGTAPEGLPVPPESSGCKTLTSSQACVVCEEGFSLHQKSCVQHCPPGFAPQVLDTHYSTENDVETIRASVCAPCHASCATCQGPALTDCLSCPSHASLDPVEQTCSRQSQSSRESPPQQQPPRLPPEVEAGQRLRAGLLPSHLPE

% inhibition of enzyme in rapid protease inhibition assay (secreted, soluble furin [1]): 60%
% inhibition of enzyme in rapid protease inhibition assay (secreted, soluble Kex2 [2]): 60%
% inhibition of enzyme in rapid protease inhibition assay (human PC7): 70%
Ka (subtilisin Carlsberg): 6.5e+08 M⁻¹
furin binding capacity of the resin relative to the M4R1-eglin Resin (secreted, soluble furin [3]): 10 fold
koff (secreted, soluble furin [4]): 0.0003 s⁻¹
koff (secreted, soluble Kex2 [5]): 0.0002 s⁻¹
Ka (trypsin): 8.4e+09 M⁻¹
B1: R4R1-eglin (designed binder)
chain: SMGSELKSFPEVVGKTVDQAREYFTLHYPQYDVYFLPEGSRVTRDLRYNRVRVFYNPGTNVVNHVPHVG
notes: N-terminal Met removed; also called Tyr49-R4R1-; D33Y49
